These results are taken from US20260022353.

This series concerns the target piggyBac transposase, 5 hyperactive mutations (Hyper) I30V,G165S,M226F,M282V,N538K (Trichoplusia ni?) (UniProt Q27026). Put plainly: cell_activity. Particulars: ~50% enhanced integration in K562 (p260); ~50% enhanced excision in 293T (p263).
Sequence of UniProt Q27026 (Q27026 entry or part of it I30V G165S M226F M282V N538K): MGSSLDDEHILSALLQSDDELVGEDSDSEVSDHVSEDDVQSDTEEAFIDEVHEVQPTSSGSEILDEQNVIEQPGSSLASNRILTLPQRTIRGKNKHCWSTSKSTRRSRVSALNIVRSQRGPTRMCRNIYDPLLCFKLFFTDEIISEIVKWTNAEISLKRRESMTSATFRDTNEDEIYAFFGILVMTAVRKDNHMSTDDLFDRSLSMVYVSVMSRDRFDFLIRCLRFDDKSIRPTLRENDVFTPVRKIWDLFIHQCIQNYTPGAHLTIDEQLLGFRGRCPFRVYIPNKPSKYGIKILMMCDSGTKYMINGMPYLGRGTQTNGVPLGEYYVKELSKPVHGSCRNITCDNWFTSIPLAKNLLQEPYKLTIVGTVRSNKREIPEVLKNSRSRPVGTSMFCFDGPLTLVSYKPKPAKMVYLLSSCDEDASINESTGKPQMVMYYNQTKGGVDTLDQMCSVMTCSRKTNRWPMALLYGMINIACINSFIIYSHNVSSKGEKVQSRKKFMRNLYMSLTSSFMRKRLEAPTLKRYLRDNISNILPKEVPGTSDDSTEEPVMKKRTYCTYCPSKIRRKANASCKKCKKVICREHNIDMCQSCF

As to “piggyBac transposon with wild type LE and RE ITRs (dual reporter)”, the activity (fold vs 4-mutation SPB) came to 1.5.
